Data set [1] can be described thus: folding stability dG unfold (combined trypsin and chymotrypsin); higher = more stable. The method, boiled down:
(§1)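 Designed mini-proteins with no cysteine and under 80 residues were kept only if AlphaFold2 dimer inter-PAE was above 15. In a PA-tagged cDNA display construct, they were digested with trypsin and chymotrypsin and then sequenced. K50 was inferred by Bayesian fitting of counts, and unfolding free energy was derived per protease or combined against a sequence-predicted unfolded-state K50 and a shared folded-state K50.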

Data set [2] is described as follows: folding stability dG unfold from trypsin proteolysis; higher = more stable. The method, boiled down: as §1
A short description of data set [3]: folding stability dG unfold from chymotrypsin proteolysis; higher = more stable. The method, boiled down: as §1

± gives the half width of the 95% confidence interval.

On to “SADIKIDVTYRRSPGEGRYTMTVRVELPDGKKLAEIPITMPADDPGMSPRQMREWARPIVKKLAKEGLISAG [r14_120_TrROS]”, for which the “folding stability dG unfold” value in data set [1] was 0.889 ± 0.08 kcal/mol; in data set [2], 0.537 ± 0.12 kcal/mol; in data set [3] it was 1.02 ± 0.1 kcal/mol.
Regarding “SADKILVRVVFNLGGPPVELTLEADSPEELVEATIAVIKPLFPDADIREVKLFVYNPNTDEVEEFTLTASAG [r14_54_TrMRF]”, the figures for the “folding stability dG unfold” value in data set [1], in data set [2] and in data set [3] were 3.06 ± 0.059 kcal/mol, 2.44 ± 0.043 kcal/mol and 3.341 ± 0.021 kcal/mol, respectively.
For “SADKVEIEFPMPESGHPFRIVIDKDGKVEIRHPNNGEEYEFKINGKPIRFPPNMSWDDAIDQLKDALKKSAG [r14_561_TrROS]” the same measures were 0.897 ± 0.19 kcal/mol, 0.905 ± 0.075 kcal/mol and 0.645 ± 0.2 kcal/mol.
Take “SADKVMIMFRSPQTFRRILREALKTDKPVYLMFPPKWMDELKELGFPNVKIEPQKNPNGGPYYMFELPVSAG [r14_127_TrROS]”: the “folding stability dG unfold” value in data set [1] came out at 1.79 ± 0.18 kcal/mol; in data set [2], 1.83 ± 0.044 kcal/mol; in data set [3], 1.75 ± 0.12 kcal/mol.
In the case of “SADLKIDDVTVQHYNDYLYVSAEITFPNGWEITVHWMIDPNGKIIDMMIEIRPPPPPVDEEDQEKAQKKSAG [r14_171_TrROS]”, the “folding stability dG unfold” value in data set [1] stood at 3.05 ± 0.25 kcal/mol; in data set [2], 2.47 ± 0.22 kcal/mol; in data set [3], 3.35 ± 0.14 kcal/mol.
With “SADNYFIRIKHKLNGKPRERTYPIDSPEEALDAIKDELQPHFPGAPIDKVKIDVFNPNNGEWQEITLKISAG [r14_54_TrROS]”, the figures for the “folding stability dG unfold” value in data set [1], in data set [2] and in data set [3] were 0.256 ± 0.13 kcal/mol, -0.0876 ± 0.11 kcal/mol and 0.373 ± 0.13 kcal/mol, respectively.
Taken in the same sequence, the figures for “SADPDEEVTLTLTLPASASPEEVEKVRDEIREAFESLGLEVDVKVEADPETGEVPVTVTLKKEALEKLGSAG [r14_602_TrMRF]” were 1.73 ± 0.18 kcal/mol, 0.834 ± 0.043 kcal/mol and 1.91 ± 0.06 kcal/mol.
As for “SADPSRGMTLTVETKELPGKGLLLVTITTSGTVEEALAYVEELAKELGAEIEILEVNENTIVVKLKVLKSAG [r14_172_JUSTAS]”, the “folding stability dG unfold” value stood at 2.49 ± 0.045 kcal/mol in data set [1], 1.97 ± 0.026 kcal/mol in data set [2] and 2.766 ± 0.014 kcal/mol in data set [3].
On to “SADPVYYKITITLYIKGDSSSTKTFEIVVPAGDVEKAKEEAIKKIKEETGKPILKVETEVTKVPPEELLSAG [r14_104_JUSTAS]”, for which the “folding stability dG unfold” value in data set [1] was determined as 4.35 ± 0.17 kcal/mol; in data set [2] it was 3.89 ± 0.4 kcal/mol; in data set [3], 4.35 ± 0.13 kcal/mol.
For “SAEEPSLEELLAAIEEEAEARAREFLERHPDVPPGAVLKVPVTLTYPLRLGDVEYPVTFEAEVDVVVPASAG [r14_486_TrMRF]” the same measures were 1.95 ± 0.1 kcal/mol, 1.74 ± 0.041 kcal/mol and 2.01 ± 0.086 kcal/mol.
On to “SAEEVTVKLELEIKIKVSEEEAKALAEELARALKEAGEVKITVEPVEKDEDGYYRIRVTIEVKIKKEDLSAG [r14_413_TrROS_Hall]”, for which the results for the “folding stability dG unfold” value in data set [1], in data set [2] and in data set [3] were 4.02 ± 0.095 kcal/mol, 3.57 ± 0.12 kcal/mol and 4.24 ± 0.11 kcal/mol, respectively.
Taken in the same sequence, the figures for “SAEIAELLKELGFEVEVEKVEVKEVEVTVTDENGKKYKVKFVEVKITVKVTNPDGSKRTFSLDELKKLLSAG [r14_578_TrROS_Hall]” were 3.45 ± 0.13 kcal/mol, 2.84 ± 0.14 kcal/mol and 3.73 ± 0.11 kcal/mol.
As to “SAEKLKKILENIEKVEFDEETGEVYITVKSVEEAEKALKELFPDVEIEKDEDGNYRFRIRVEKLPEELLSAG [r14_115_TrROS_Hall]”, the “folding stability dG unfold” value in data set [1] was 4.4 ± 0.084 kcal/mol; in data set [2] it was 3.66 ± 0.12 kcal/mol; in data set [3], 4.68 ± 0.082 kcal/mol.
Taken in the same sequence, the figures for “SAELTIEITVPPGKSVEEVLAEAKALAEELGLEIVEVRVERDENGEVRVTVVIKLPEELTEEQRKALLESAG [r14_110_TrROS_Hall]” were 3.02 ± 0.21 kcal/mol, 3.06 ± 0.17 kcal/mol and 2.89 ± 0.13 kcal/mol.
Taken in the same sequence, the figures for “SAEPEVEYVVIELEVTIELAPGQEAPTADEIAEALRAALEAAGAEITSVEVEVRDGQVTVRVTIVLPKKASA [r9_1134_TrROS_Hall]” were 3.6 ± 0.16 kcal/mol, 3.53 ± 0.086 kcal/mol and 3.51 ± 0.17 kcal/mol.
Taken in the same sequence, the figures for “SAEPPWYWIIKIEFPNGKPIVFMMDDPEEARERFEEKLRKEFPDGMKIESIPITPNDMDSPEEALERIKSAG [r14_900_TrROS]” were 1.75 ± 0.48 kcal/mol, 1.8 ± 0.27 kcal/mol and 1.62 ± 0.16 kcal/mol.
For “SAETTTETKVEEITLEDKKATINITTYSDGSTEATITIYGNDPKVKEKVKEYIKKKDPNIKITKIETKESAG [r14_611_JUSTAS]”, the “folding stability dG unfold” value in data set [1] was determined as 2.92 ± 0.093 kcal/mol; in data set [2], 1.85 ± 0.083 kcal/mol; in data set [3], 3.25 ± 0.043 kcal/mol.
With “SAETVVIPIEAPEDEILAAIKALIDANPDVKITITYADGEKKEITLPDGTKITIERLPDGTLLITVEKVSAG [r14_807_TrROS_Hall]”, the “folding stability dG unfold” value was 2.49 ± 0.17 kcal/mol in data set [1], 3.19 ± 0.23 kcal/mol in data set [2] and 1.74 ± 0.066 kcal/mol in data set [3].

Source of the values: the supplement of paper PMC12764529.
